# Target: VEE capsid protein (Venezuelan equine encephalitis virus, UniProt P09592 P09592:1-275)
# Test: EMSA
# Details: label: biotin
# Chain of VEE capsid protein (P09592 1-275, one chain of several): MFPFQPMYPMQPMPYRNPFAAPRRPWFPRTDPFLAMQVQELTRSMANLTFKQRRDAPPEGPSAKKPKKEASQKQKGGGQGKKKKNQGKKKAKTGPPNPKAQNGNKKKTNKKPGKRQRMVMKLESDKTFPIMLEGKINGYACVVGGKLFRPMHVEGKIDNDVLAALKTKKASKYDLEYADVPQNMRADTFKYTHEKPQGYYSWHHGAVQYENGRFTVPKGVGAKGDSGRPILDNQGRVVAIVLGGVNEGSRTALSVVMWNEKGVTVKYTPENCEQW
row,Binder,binding result
1,GGUUGCGCCCACACGCAAACACCGCCCUUCGACAUGAGGCCCGGC (ssRNA) [KLG_M_45],binds
2,GGGAGCUCAGAAUAAACGCUCAAGGCCCUUGCGCCCACACGCAAGC (ssRNA) [KLG_5_46],binds

# Source: patent US20060172925, “Thio-siRNA aptamers” (Board Of Regents, The University Of Texas System, published 2006)
